# Experimental data reported in paper PMC5034880.
# T1: PGL-3 (1-633)-6xHis-mEGFP (ΔRGG) (Caenorhabditis elegans, UniProt G5EBV6 1-633)
# T1 sequence: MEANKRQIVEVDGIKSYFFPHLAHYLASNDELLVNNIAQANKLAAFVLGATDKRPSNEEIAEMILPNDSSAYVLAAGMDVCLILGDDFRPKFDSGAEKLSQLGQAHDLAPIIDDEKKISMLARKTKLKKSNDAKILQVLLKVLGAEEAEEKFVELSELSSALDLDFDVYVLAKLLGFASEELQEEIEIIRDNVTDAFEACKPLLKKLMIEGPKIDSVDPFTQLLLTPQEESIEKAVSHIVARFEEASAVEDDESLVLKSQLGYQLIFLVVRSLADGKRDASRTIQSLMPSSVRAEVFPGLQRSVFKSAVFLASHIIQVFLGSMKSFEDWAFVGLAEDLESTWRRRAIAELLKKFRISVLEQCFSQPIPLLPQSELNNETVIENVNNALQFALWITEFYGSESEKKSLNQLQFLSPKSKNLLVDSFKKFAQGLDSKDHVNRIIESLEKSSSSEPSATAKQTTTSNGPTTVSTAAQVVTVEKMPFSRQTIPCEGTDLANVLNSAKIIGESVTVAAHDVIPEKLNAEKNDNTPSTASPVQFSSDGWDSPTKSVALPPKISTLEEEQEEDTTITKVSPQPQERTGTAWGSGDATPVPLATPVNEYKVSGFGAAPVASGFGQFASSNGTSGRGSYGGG
# Target: T1, PGL-3 (1-633)-6xHis-mEGFP (ΔRGG)
# Test: filter binding
binder,measurement,value
GUUGUUGUUGUUGUUGUUGUUGUUGUUGUUAAAAAAAAAA (ssRNA) [(GUU)10A10 RNA],binding signal,> 60 fold weaker than full-length PGL-3
